B1: Sigma factor AlgU negative regulatory protein (Pseudomonas aeruginosa (strain ATCC 15692 / PAO1 / 1C / PRS 101 / LMG 12228)), P38107 (parent)
chain: MSREALQETLSAVMDNEADELELRRVLAACGEDAELRSTWSRYQLARSVMHREPTLPKLDIAAAVSAALADEAAPPKAEKGPWRMVGRLAVAASVTLAVLAGVRLYNQNDALPQMAQQGTTPQIALPQVKGPAVLAGYSEEQGAPQVITNSSSSDTRWHEQRLPIYLRQHVQQSAVSGTESALPYARAASLENR
partner: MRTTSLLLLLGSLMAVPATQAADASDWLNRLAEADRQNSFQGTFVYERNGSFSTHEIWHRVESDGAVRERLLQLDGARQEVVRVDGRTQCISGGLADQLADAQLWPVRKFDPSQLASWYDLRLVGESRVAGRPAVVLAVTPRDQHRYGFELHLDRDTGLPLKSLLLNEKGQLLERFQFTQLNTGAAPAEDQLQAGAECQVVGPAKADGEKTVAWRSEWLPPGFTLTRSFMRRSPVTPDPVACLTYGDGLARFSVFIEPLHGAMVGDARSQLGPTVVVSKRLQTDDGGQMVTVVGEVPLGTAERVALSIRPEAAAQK

Variants of: B1
Details: with mucb_pseae mucB

| Variant | effect of a mutation on the interaction |
| --- | --- |
| MSREALQETLSAVMDNEADELELRRVLAACGEDAELRSTWSRYQLARSVMHREPTLPKLDIAAAVSAALADEAAPPKAEKGPWRMVGRLAVAASVTLAVLAGVRLYNQNDALPQMAQQGTTPQIALPQVKGPAVLAGYSEEQGAPQVITNSSSCDTRWHEQRLPIYLRQHVQQSAVSGTESALPYARAASLENR | decreasing interaction strength |

Source: IntAct's records for PubMed 19298369
